Earlier results on one substance are cited in article PMC7103376.

One may read the Kd as the constant that tells how readily two partners part at equilibrium.

In this data set the target is 3CLpro (SARS coronavirus) (UniProt P0C6X7).

In the case of 3CLpro (from UniProt P0C6X7), the Kd is below 100 nM.
